Molecular target: T1, CMKLR1 receptor (Homo sapiens, UniProt Q99788)
T1 construct: host or cells: CHO-K1
T1 sequence (Q99788 1-373): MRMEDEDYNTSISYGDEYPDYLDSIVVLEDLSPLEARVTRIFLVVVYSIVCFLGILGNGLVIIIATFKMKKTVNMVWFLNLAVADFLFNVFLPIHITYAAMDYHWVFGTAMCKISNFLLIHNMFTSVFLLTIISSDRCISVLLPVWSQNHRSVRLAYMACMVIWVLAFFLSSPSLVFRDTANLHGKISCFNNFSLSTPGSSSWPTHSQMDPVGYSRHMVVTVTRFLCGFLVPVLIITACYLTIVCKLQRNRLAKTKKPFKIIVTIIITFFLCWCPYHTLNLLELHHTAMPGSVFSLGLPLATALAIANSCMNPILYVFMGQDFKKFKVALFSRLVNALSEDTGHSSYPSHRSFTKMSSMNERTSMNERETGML
Assay: Competition assay of Chemerin-dependent β-arrestin recruitment by CMKLR1 receptor, CHO-K1 CMKLR1 cells
Format: cell-based
Conditions: FIG. 20B; antibody 1 μM to 1 nM, Chemerin 2 or 6 nM
Procedure: The day before the assay, CHO-K1 CMKLR1 cells (Discover'X ref 93-0313E2) were plated in pre-warmed cell reagent then plated in a 96-well plate at 100 μl/well of cells as (Discover'X ref 15-103) and incubated […] at 37° C., in a 5% CO2 humidified incubator. The anti-CMLKR1 antibody was diluted (22× in 7-point series of 3-fold dilutions from 1 μM to 1 nM) and cells were incubated 30 min at 37° C. with the antibody. […] The luminescence was measured after Working Detection Solution addition to the cells with a plate reader with 0.5 s integration.

B1: 2G1: chimeric anti-CMKLR1 antibody, murine variable regions (SEQ ID No: 10 and 17), human IgG1 constant regions; VH-CDR3 variant LI (antibody, V domains shown)
VH: METDTLLLWVLLLWVPGSTGDEVQLVASGGGLVQPGGSLKLSCAASGFTFSSYGMSWVRQTPDRRLELVATINRYGGSTYYPDSVKGRFTISRDNAKNTLYLQMSSLKSEDTAMYYCPRLIYYGNEGDSWGQGTTLTVSS
VL: METDTLLLWVLLLWVPGSTGDQIVLTQSPAIMSASPGEKVTMTCSASSSVSFMHWYQQKSGTSPKRWIYDTTKLTSGVPARFSGSGSGTFYSLTISSMEAEDAATYYCQQWNSKPPLTFGPGTKLELKR
modifications: human IgG1 constant regions
notes: VH-CDR3 variant LI
- effect on chemerin-dependent activation of the beta-arrestin: did not significantly modify chemerin-dependent activation of the beta-arrestin
